In patent US20250302986A1, “NOVEL PEPTIDE, USGAES THEREOF AND PHARMACEUTICAL COMPOSITION HAVING THE SAME” (Taipei Medical University, priority 2024, published 2025):

T1: Recombinant Mouse B7-1/CD80 Fc Chimera His-tag Protein, CF (R&D Systems, catalog number 740-B1) (mouse, UniProt Q00609 38-245)
T1 construct: Bought reagent; everywhere else it is mouse; also called mouse CD80 recombinant protein; bait; Fc part of the bought chimera not given; His-tag
T1 sequence (looked up): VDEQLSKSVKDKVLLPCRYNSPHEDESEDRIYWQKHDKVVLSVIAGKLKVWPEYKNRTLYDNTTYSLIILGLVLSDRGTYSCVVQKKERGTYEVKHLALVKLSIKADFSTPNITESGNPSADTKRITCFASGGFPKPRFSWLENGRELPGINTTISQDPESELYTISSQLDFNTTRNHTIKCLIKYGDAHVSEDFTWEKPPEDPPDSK

B1: first peptide (VLMGDPSVWWTY) (peptide)
peptide: VLMGDPSVWWTY
notes: In the ELISA screening the peptide stood on an M13 phage clone from the PhD-12 Phage Display Peptide Library (New England Biolabs); also called novel peptide
B2: second peptide (YLIYEEEPLNSM) (peptide)
peptide: YLIYEEEPLNSM
notes: In the ELISA screening the peptide stood on an M13 phage clone from the PhD-12 Phage Display Peptide Library

Key:
[1] = target: T2, mouse CD80 recombinant protein (Mus musculus, UniProt Q00609); test: Phage display screening and enzyme-linked immunosorbent assay screening for CD80 binding; settings: peptide derived from ELISA-positive phage colonies
T2 construct: Fc (Fc chimera); His-tag; purchased R&D Systems 740-B1
Experimental: In ‘Phage Display Screening”, biopanning is applied via phage display technology. First, the G protein magnetic beads (product name: Dynabeads™ Protein G; manufacturer: Invitrogen) are added to mix with the phage peptide library (product name: PhD-12 Phage Display Peptide Library; manufacturer: New England Biolabs), thus the mixture is incubated for 1 hour at 4° C. ambient conditions. Then, a magnet is used to remove the G protein magnetic beads to exclude phages bound to the G protein magnetic beads in the phage peptide library, thereby obtaining a purified phage peptide library. Continuously, the bait carrier is added to the purified phage peptide library and incubated overnight at 4° C. ambient conditions. The bait carrier is magnetic beads immobilized with mouse CD80 recombinant protein (product name: Recombinant Mouse B7-1/CD80 Fc Chimera His-tag Protein, CF; manufacturer: R&D Systems; catalog number: 740-B1). Therefore, the phages in the purified phage peptide library that bind to the mouse CD80 recombinant protein will be bound to the bait carrier, and then the bait carrier will be separated using the magnet. Then the bait carrier is rinsed with cleaning solution to eliminate phages with weak binding force. The cleaning solution is phosphate buffered saline (PBS) containing 0.1% (v/v) polysorbate-20 (Tween 20). […]

[2] = target: T1, Recombinant Mouse B7-1/CD80 Fc Chimera …; test: phage ELISA on plate-coated mouse CD80 recombinant protein, anti-M13 HRP, absorbance at 450 nm
Source text: The PEG8000/NaCl contains 20% (v/v) PEG8000 (product name: Poly (ethylene glycol); manufacturer: Sigma-Aldrich; Cat. No.: P5413-1KG) and 2.5M NaCl (product name: Sodium chloride; manufacturer: Honeywell fluka; Cat. No.: 31434S-1KG). The above steps are repeated for five rounds in total. In the fourth and fifth rounds, phage clones will be randomly selected for culture, and used in the subsequent enzyme-linked immunosorbent assay (ELISA) to screen out desired phages.
In the “Enzyme Combined Immunosorbent Assay Screening”, the mouse CD80 recombinant protein is first fixed in the wells of a microplate (product name: Clear C-Shaped Immuno Nonsterile 96-Well Plates; manufacturer: Thermo Fisher Scientific; Cat. No.: 446612), and then the phage clones randomly selected in the fourth and fifth rounds of the “Phage Display Screening” are mixed with the diluent at a volume ratio of 1:2 to obtain a phage dilution, which is a phosphate buffered saline comprising 3% (v/v) bovine serum albumin (BSA) and 0.1% (v/v) polysorbate-20. […] Constantly, a microplate reader is adopted to measure the absorbance at 450 nm to confirm whether the phages in each grid of the microplate are still bound to the mouse CD80 recombinant protein in the microplate. […]

T2 sequence (Q00609 with tags, fused parts or gaps limits assumed): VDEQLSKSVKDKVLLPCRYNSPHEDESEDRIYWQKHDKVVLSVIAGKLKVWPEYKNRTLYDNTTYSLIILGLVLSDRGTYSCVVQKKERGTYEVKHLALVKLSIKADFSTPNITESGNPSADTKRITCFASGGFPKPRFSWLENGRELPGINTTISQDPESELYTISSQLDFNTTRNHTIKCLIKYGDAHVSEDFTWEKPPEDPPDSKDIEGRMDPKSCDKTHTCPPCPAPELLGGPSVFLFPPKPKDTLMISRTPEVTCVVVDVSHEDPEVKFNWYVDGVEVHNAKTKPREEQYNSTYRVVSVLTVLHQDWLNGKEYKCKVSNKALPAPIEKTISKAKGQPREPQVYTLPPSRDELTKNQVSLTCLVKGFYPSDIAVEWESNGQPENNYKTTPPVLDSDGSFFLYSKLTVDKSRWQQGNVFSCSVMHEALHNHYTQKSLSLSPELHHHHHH

Molecule | binding to CD80 protein [1] | binding result [2]
VLMGDPSVWWTY [first peptide, peptide from phage display screening against mouse CD80 recombinant protein] | can indeed bind to the CD80 protein | 
B1 |  | binds
B2 |  | binds
